The values that follow come from patent US20150118700.

The target in this data set is T1, α-fructosyl hexapeptide (α-fructosyl-valyl-histidyl-leucyl-threonyl-propyl-glutamic acid).
T1 chain: VHLTPE

B1: CFP-T7-H2-62Q (protein)
chain: MTSNRADTRVIVVGGGGTIGSSTALHLVRSGYAPANITVLDTFEIPSAQSAGHDLNKIMGIQLRNKVDLQMSLEARQMWKEDELFQPFFHNTGRMDCEHTPEGIEDLKKLYQALHDAGAGLEKTHAWLDNEDEILSKMPLLQRDQIQGWKAIWSQDGGWLAAAKAINAIGQFLKERGVKFGFGGAGSFKQPLFDDEGTTCIGVETADGTKYYADKVVLAAGAWSPTLVDLEDQCCSKAWVYAHIQLTPEEAAEYKGVPVVYNGEFGFFFEPDEFGVIKVCDEFPGFSRFKEHQPYGAPSPKRISVPRSHAKHPTDTYPDASEVSIKKAIATFLPRFQDKELFNRALCWCTDTADAALLMCEHPKWKNFILATGDSGHSFKILPNVGKYVVELIEGRLPEEMAYQWRWRPGGDALKSRRAAPPKDLADMPGWKHDPKL
As to B1, the αF6P oxidation activity ratio, relative to CFP-T7-H2 designated to be 100 (relative (CFP-T7-H2 = 100)) was 11.

B2: CFP-T7-H10 (protein)
chain: MTSNRADTRVIVVGGGGTIGSSTALHLVRSGYAPANITVLDTFEIPSAQSAGHDLNKIMGIDLRNKVDLQMSLEARQMWKEDELFQPFFHNTGRMDCEHTPEGIEALKKLYQALHDAGAGLEKTHAWLDNEDEILSKMPLLQRDQIQGWKAIWSQDGGWLAAAKAINAIGQFLKERGVKFGFGGAGSFKQPLFDDEGTTCIGVETADGTKYYADKVVLAAGAWSPTLVDLEDQCCSKAWVYAHIQLTPEEAAEYKGVPVVYNGEFGFFFEPDEFGVIKVCDEFPGFSRFKEHQPYGAPSPKRISVPRSHAKHPTDTYPDASEVSIKKAIATFLPRFQDKELFNRALCWCTDTADAALLMCEHPKWKNFILATGDSGHSFKILPNVGKYVVELIEGRLPEEMAYQWRWRPGGDALKSRRAAPPKDLADMPGWKHDPKL
For B2, the αF6P oxidation activity ratio, relative to CFP-T7-H6 designated to be 100 (relative (CFP-T7-H6 = 100)) was determined as 301.

B3: CFP-T7-H2 (protein)
chain: MTSNRADTRVIVVGGGGTIGSSTALHLVRSGYAPANITVLDTFEIPSAQSAGHDLNKIMGIALRNKVDLQMSLEARQMWKEDELFQPFFHNTGRMDCEHTPEGIEDLKKLYQALHDAGAGLEKTHAWLDNEDEILSKMPLLQRDQIQGWKAIWSQDGGWLAAAKAINAIGQFLKERGVKFGFGGAGSFKQPLFDDEGTTCIGVETADGTKYYADKVVLAAGAWSPTLVDLEDQCCSKAWVYAHIQLTPEEAAEYKGVPVVYNGEFGFFFEPDEFGVIKVCDEFPGFSRFKEHQPYGAPSPKRISVPRSHAKHPTDTYPDASEVSIKKAIATFLPRFQDKELFNRALCWCTDTADAALLMCEHPKWKNFILATGDSGHSFKILPNVGKYVVELIEGRLPEEMAYQWRWRPGGDALKSRRAAPPKDLADMPGWKHDPKL
Turning to B3, the αF6P oxidation activity ratio (reference, designated to be 100) (relative (CFP-T7-H2 = 100)) turned out to be 100 and the αF6P oxidation activity, relative to αFVH oxidation activity designated to be 100 (relative (αFVH = 100)) was 0.0735.

B4: CFP-T7-H8 (protein)
chain: MTSNRADTRVIVVGGGGTIGSSTALHLVRSGYAPANITVLDTFEIPSAQSAGHDLNKIMGIDLENKVDLQMSLEARQMWKEDELFQPFFHNTGRMDCEHTPEGIEDLKKLYQALHDAGAGLEKTHAWLDNEDEILSKMPLLQRDQIQGWKAIWSQDGGWLAAAKAINAIGQFLKERGVKFGFGGAGSFKQPLFDDEGTTCIGVETADGTKYYADKVVLAAGAWSPTLVDLEDQCCSKAWVYAHIQLTPEEAAEYKGVPVVYNGEFGFFFEPDEFGVIKVCDEFPGFSRFKEHQPYGAPSPKRISVPRSHAKHPTDTYPDASEVSIKKAIATFLPRFQDKELFNRALCWCTDTADAALLMCEHPKWKNFILATGDSGHSFKILPNVGKYVVELIEGRLPEEMAYQWRWRPGGDALKSRRAAPPKDLADMPGWKHDPKL
With B4, the αF6P oxidation activity ratio, relative to CFP-T7-H6 designated to be 100 (relative (CFP-T7-H6 = 100)) came out at 2.

B5: CFP-T7-H9 (protein)
chain: MTSNRADTRVIVVGGGGTIGSSTALHLVRSGYAPANITVLDTFEIPSAQSAGHDLNKIMGIDLHNKVDLQMSLEARQMWKEDELFQPFFHNTGRMDCEHTPEGIEDLKKLYQALHDAGAGLEKTHAWLDNEDEILSKMPLLQRDQIQGWKAIWSQDGGWLAAAKAINAIGQFLKERGVKFGFGGAGSFKQPLFDDEGTTCIGVETADGTKYYADKVVLAAGAWSPTLVDLEDQCCSKAWVYAHIQLTPEEAAEYKGVPVVYNGEFGFFFEPDEFGVIKVCDEFPGFSRFKEHQPYGAPSPKRISVPRSHAKHPTDTYPDASEVSIKKAIATFLPRFQDKELFNRALCWCTDTADAALLMCEHPKWKNFILATGDSGHSFKILPNVGKYVVELIEGRLPEEMAYQWRWRPGGDALKSRRAAPPKDLADMPGWKHDPKL
For the protein B5, the αF6P oxidation activity ratio, relative to CFP-T7-H6 designated to be 100 (relative (CFP-T7-H6 = 100)) is 44.

B6: CFP-T7-H7 (protein)
chain: MTSNRADTRVIVVGGGGTIGSSTALHLVRSGYAPANITVLDTFEIPSAQSAGHDLNKIMGIDLANKVDLQMSLEARQMWKEDELFQPFFHNTGRMDCEHTPEGIEDLKKLYQALHDAGAGLEKTHAWLDNEDEILSKMPLLQRDQIQGWKAIWSQDGGWLAAAKAINAIGQFLKERGVKFGFGGAGSFKQPLFDDEGTTCIGVETADGTKYYADKVVLAAGAWSPTLVDLEDQCCSKAWVYAHIQLTPEEAAEYKGVPVVYNGEFGFFFEPDEFGVIKVCDEFPGFSRFKEHQPYGAPSPKRISVPRSHAKHPTDTYPDASEVSIKKAIATFLPRFQDKELFNRALCWCTDTADAALLMCEHPKWKNFILATGDSGHSFKILPNVGKYVVELIEGRLPEEMAYQWRWRPGGDALKSRRAAPPKDLADMPGWKHDPKL
For B6, the αF6P oxidation activity ratio, relative to CFP-T7-H6 designated to be 100 (relative (CFP-T7-H6 = 100)) turned out to be 17.

B7: CFP-T7-H6 (protein)
chain: MTSNRADTRVIVVGGGGTIGSSTALHLVRSGYAPANITVLDTFEIPSAQSAGHDLNKIMGIDLRNKVDLQMSLEARQMWKEDELFQPFFHNTGRMDCEHTPEGIEDLKKLYQALHDAGAGLEKTHAWLDNEDEILSKMPLLQRDQIQGWKAIWSQDGGWLAAAKAINAIGQFLKERGVKFGFGGAGSFKQPLFDDEGTTCIGVETADGTKYYADKVVLAAGAWSPTLVDLEDQCCSKAWVYAHIQLTPEEAAEYKGVPVVYNGEFGFFFEPDEFGVIKVCDEFPGFSRFKEHQPYGAPSPKRISVPRSHAKHPTDTYPDASEVSIKKAIATFLPRFQDKELFNRALCWCTDTADAALLMCEHPKWKNFILATGDSGHSFKILPNVGKYVVELIEGRLPEEMAYQWRWRPGGDALKSRRAAPPKDLADMPGWKHDPKL
B7: the αF6P oxidation activity ratio (reference, designated to be 100) (relative (CFP-T7-H6 = 100)) amounted to 100; the αF6P oxidation activity ratio, relative to CFP-T7-H2 designated to be 100 (relative (CFP-T7-H2 = 100)) was found to be 513; the αF6P oxidation activity, relative to αFVH oxidation activity designated to be 100 (relative (αFVH = 100)) was determined as 3.

B8: CFP-T7-H2-62E (protein)
chain: MTSNRADTRVIVVGGGGTIGSSTALHLVRSGYAPANITVLDTFEIPSAQSAGHDLNKIMGIELRNKVDLQMSLEARQMWKEDELFQPFFHNTGRMDCEHTPEGIEDLKKLYQALHDAGAGLEKTHAWLDNEDEILSKMPLLQRDQIQGWKAIWSQDGGWLAAAKAINAIGQFLKERGVKFGFGGAGSFKQPLFDDEGTTCIGVETADGTKYYADKVVLAAGAWSPTLVDLEDQCCSKAWVYAHIQLTPEEAAEYKGVPVVYNGEFGFFFEPDEFGVIKVCDEFPGFSRFKEHQPYGAPSPKRISVPRSHAKHPTDTYPDASEVSIKKAIATFLPRFQDKELFNRALCWCTDTADAALLMCEHPKWKNFILATGDSGHSFKILPNVGKYVVELIEGRLPEEMAYQWRWRPGGDALKSRRAAPPKDLADMPGWKHDPKL
In the case of B8, the αF6P oxidation activity ratio, relative to CFP-T7-H2 designated to be 100 (relative (CFP-T7-H2 = 100)) stood at 21.
